We go through 36 molecules from patent publication US20030162229A1.

Where no end group is shown, it is not given here. The star is where a group is joined. Biotin = O=C1N[C@H]2[C@H](CS[C@H]2CCCCC(=O)*)N1

One may read the % inhibition as the percentage by which the read-out fell short of the control. High values mean a strong effect, low ones a weak effect.

The target of assay [1] is human recombinant 30 kDa inhibin A (human) (UniProt P05111). Description: RIA, iodinated human inhibin A tracer vs human recombinant inhibin A.
Assay [2] addresses rabbit antiserum #1989. Description: RIA, competition with iodinated inhibin.
Assay [3] concerns the target antiserum As #41 (sheep polyclonal, raised to the alpha subunit of human inhibin). Briefly: RIA, competition with iodinated inhibin.
Assay [4] deals with antiserum As #128 (sheep polyclonal, raised to the alpha subunit of human inhibin, boosted with human recombinant 30-kDa inhibin). Description: RIA, competition with iodinated inhibin.
In assay [5] the target is antiserum As #41 (sheep polyclonal, raised to the alpha subunit of human inhibin). Briefly: competitive 2-site assay, peptides incubated with iodinated As #41.
The target in assay [6] is antiserum As #128 (sheep polyclonal, raised to the alpha subunit of human inhibin, boosted with human recombinant 30-kDa inhibin). Description: inhibin IFMA; #20 on As #128, buffer on As #41.
Assay [7] has the same target. Description: two-site assay, peptide pre-incubated on As #128 coated plate, then hr-inhibin, biotinylated As #41.
Assay [8] shares this target. Briefly: RIA, iodinated hr-inhibin tracer.
Assay [9] concerns the target rabbit antiserum #1989. Briefly: RIA, iodinated hr-inhibin tracer.
In assay [10] the target is antiserum As #41 (sheep polyclonal, raised to the alpha subunit of human inhibin). Description: inhibin IFMA; buffer on As #128, #30 on As #41.
Assay [11] has as its target antibody pair of the (alpha)C IFMA: As #128 as coating antibody and As #41 as label. Description: inhibin IFMA; #5 on As #128 and #5 on As #41.
The target of assay [12] is antiserum As #41 (sheep polyclonal, raised to the alpha subunit of human inhibin). Description: inhibin IFMA; buffer on As #128, #5 on As #41.
For assay [13] the target is unchanged. Description: two-site assay, biotinylated As #41 pre-incubated with peptide, inhibin on As #128 plate.
Assay [14] addresses antiserum As #128 (sheep polyclonal, raised to the alpha subunit of human inhibin, boosted with human recombinant 30-kDa inhibin). Briefly: inhibin IFMA; #5 on As #128, buffer on As #41.
Assay [15] has as its target antiserum As #41 (sheep polyclonal, raised to the alpha subunit of human inhibin). Briefly: RIA, iodinated hr-inhibin tracer.

Take “R1 monoclonal antibody (Groome), inhibin (alpha)C subunit”: in assay [1], the ED25 (affinity for inhibin) is 0.0016 µM.

Regarding Biotin-SGSGWSPSALRLLQRPPE [biotinylated peptide #5 (Set 1) of the human (alpha)C subunit], the ED50 is more than 2.5 µM with rabbit antiserum #1989 [2], 1.5e-05 µM in assay [3] and 3.8 µM in [4]. Also, in assay [5], the % contribution (competition with inhibin) is 50%.

In the case of Biotin-SGSGELGWERWIVYPPSF [biotinylated peptide #13 (Set 1) of the human (alpha)C subunit], in the assay with rabbit antiserum #1989 [2], the ED50 is more than 2.5 µM.

Biotin-SGSGALRLLQRPPEEPAA [biotinylated peptide #6 (Set 1) of the human (alpha)C subunit]: the ED50 is more than 2.5 µM with rabbit antiserum #1989 [2], 0.026 µM in assay [3] and 1.8 µM in [4].

For Biotin-SGSGISFQELGWERWIVY [biotinylated peptide #12 (Set 1) of the human (alpha)C subunit], the ED50 with rabbit antiserum #1989 [2] was more than 2.5 µM.

As to Biotin-SGSGRTTSDGGYSFKYET [biotinylated peptide #30 (Set 1) of the human (alpha)C subunit], the ED50 with rabbit antiserum #1989 [2] is less than 0.01 µM; in assay [3], 2.5 µM; in assay [4], 0.6 µM. The molecule also gave a % contribution (competition with inhibin) in assay [5] of 50%.

Turning to Biotin-SGSGPLHVRTTSDGGYSF [biotinylated peptide #29 (Set 1) of the human (alpha)C subunit], the values for the ED50 (in the assay with rabbit antiserum #1989 [2]; in [3]; in assay [4]) were more than 2.5 µM, 5 µM and 0.156 µM, respectively.

Take Biotin-SGSGPEEPAAHANCHRVA [biotinylated peptide #8 (Set 1) of the human (alpha)C subunit]: the ED50 in the assay with rabbit antiserum #1989 [2] was more than 2.5 µM; in assay [4] it was 4.8 µM.

As to Biotin-SGSGSTPLMSWPWSPSAL [biotinylated peptide #3 (Set 1) of the human (alpha)C subunit], the values for the ED50 (with rabbit antiserum #1989 [2]; in assay [4]) were more than 2.5 µM and 38 µM, respectively.

As to Biotin-SGSGLHIPPNLSLPVPGA [biotinylated peptide #19 (Set 1) of the human (alpha)C subunit], the ED50 in the assay with rabbit antiserum #1989 [2] was more than 2.5 µM; in assay [3], 2.1 µM; in assay [4] it was less than 0.01 µM.

Consider Biotin-SGSGGTMRPLHVRTTSDG [biotinylated peptide #28 (Set 1) of the human (alpha)C subunit], for which the ED50 in the assay with rabbit antiserum #1989 [2] was more than 2.5 µM; in [3], 4 µM; in [4] it was 0.625 µM.

Turning to H-CSKKGPNLSLPVPGAPPTP [non-biotinylated peptide #20 with NH2-Cys-Ser-Lys-Lys-Gly amino terminal spacer], in assay [6], the % suppression at 2ng inhibin amounted to 13%. Moreover, the % suppression in binding in [7] was 23%. In addition, the ED50 in assay [8] was determined as 0.15 µM.

In the assay with rabbit antiserum #1989 [2], Biotin-SGSGVALNISFQELGWER [biotinylated peptide #11 (Set 1) of the human (alpha)C subunit] returned an ED50 of more than 2.5 µM.

B1: human recombinant 30 kDa inhibin A (ligand)
chain 1: STPLMSWPWSPSALRLLQRPPEEPAAHANCHRVALNISFQELGWERWIVYPPSFIFHYCHGGCGLHIPPNLSLPVPGAPPTPAQPYSLLPGAQPCCAALPGTMRPLHVRTTSDGGYSFKYETVPNLLTQHCACI
chain 2: GLECDGKVNICCKKQFFVSFKDIGWNDWIIAPSGYHANYCEGECPSHIAGTSGSSLSFHSTVINHYRMRGHSPFANLKSCCVPTKLRPMSMLYYDDGQNIIKKDIQNMIVEECGCS
Turning to B1, the ED50 with rabbit antiserum #1989 [9] was found to be 0.0001 µM; in assay [8], 0.002 µM.

Consider H-CSKKGRTTSDGGYSFKYET [non-biotinylated peptide #30 with NH2-Cys-Ser-Lys-Lys-Gly amino terminal spacer], for which, in assay [10], the % suppression at 2ng inhibin amounted to 28%. The ED50 with rabbit antiserum #1989 [9] came to 2.5 µM.

For the molecule Biotin-SGSGETVPNLLTQHCACI (cysteine pairing not given here) [biotinylated peptide #33 (Set 1) of the human (alpha)C subunit], the figures for the ED50 (in the assay with rabbit antiserum #1989 [2]; in assay [3]; in assay [4]) were more than 2.5 µM, 4 µM and 2.5 µM, respectively.

Turning to Biotin-SGSGQPCCAALPGTMRPL (cysteine pairing not given here) [biotinylated peptide #26 (Set 1) of the human (alpha)C subunit], the ED50 with rabbit antiserum #1989 [2] is more than 2.5 µM; in assay [3], 1 µM; in assay [4], 0.625 µM.

Turning to Biotin-SGSGPYSLLPGAQPCCAA (cysteine pairing not given here) [biotinylated peptide #24 (Set 1) of the human (alpha)C subunit], the ED50 with rabbit antiserum #1989 [2] was more than 2.5 µM; in assay [3] it was 6.2 µM; in [4], 0.9 µM.

Take Biotin-SGSGHYCHGGCGLHIPPN (cysteine pairing not given here) [biotinylated peptide #17 (Set 1) of the human (alpha)C subunit]: the ED50 with rabbit antiserum #1989 [2] was more than 2.5 µM; in [3], 1.05 µM; in assay [4] it was 10 µM.

For the molecule Biotin-SGSGAALPGTMRPLHVRT [biotinylated peptide #27 (Set 1) of the human (alpha)C subunit], the ED50 with rabbit antiserum #1989 [2] is more than 2.5 µM; in assay [3], 5 µM; in assay [4], 2 µM.

Regarding Biotin-SGSGSFKYETVPNLLTQH [biotinylated peptide #32 (Set 1) of the human (alpha)C subunit], the ED50 was more than 2.5 µM in the assay with rabbit antiserum #1989 [2], 0.29 µM in assay [3] and 2.5 µM in [4].

In the case of Biotin-SGSGPNLSLPVPGAPPTP [biotinylated peptide #20 (Set 1) of the human (alpha)C subunit], the ED50 was more than 2.5 µM in the assay with rabbit antiserum #1989 [2], 3.6 µM in [3] and 0.02 µM in assay [4].

Consider Biotin-SGSGLPGAQPCCAALPGT (cysteine pairing not given here) [biotinylated peptide #25 (Set 1) of the human (alpha)C subunit], for which the figures for the ED50 (with rabbit antiserum #1989 [2]; in assay [3]; in assay [4]) were more than 2.5 µM, 5 µM and 2 µM, respectively.

Turning to Biotin-SGSGGGCGLHIPPNLSLP [biotinylated peptide #18 (Set 1) of the human (alpha)C subunit], the figures for the ED50 (with rabbit antiserum #1989 [2]; in assay [3]; in [4]) were more than 2.5 µM, 1.05 µM and 0.06 µM, respectively.

In the case of Biotin-SGSGLQRPPEEPAAHANC [biotinylated peptide #7 (Set 1) of the human (alpha)C subunit], the ED50 with rabbit antiserum #1989 [2] was more than 2.5 µM; in assay [3] it was 1.25 µM; in [4] it was 1.6 µM.

Molecule Biotin-SGSGSFIFHYCHGGCGLH (cysteine pairing not given here) [biotinylated peptide #16 (Set 1) of the human (alpha)C subunit] had an ED50 with rabbit antiserum #1989 [2] of more than 2.5 µM.

For Biotin-SGSGVYPPSFIFHYCHGG [biotinylated peptide #15 (Set 1) of the human (alpha)C subunit], in the assay with rabbit antiserum #1989 [2], the ED50 was more than 2.5 µM.

As for Biotin-SGSGDGGYSFKYETVPNL [biotinylated peptide #31 (Set 1) of the human (alpha)C subunit], the ED50 with rabbit antiserum #1989 [2] was more than 2.5 µM; in assay [3], 2.4 µM; in [4], 1.4 µM.

On to Biotin-SGSGNCHRVALNISFQEL [biotinylated peptide #10 (Set 1) of the human (alpha)C subunit], for which the ED50 with rabbit antiserum #1989 [2] was more than 2.5 µM.

For the molecule Biotin-SGSGLPVPGAPPTPAQPY [biotinylated peptide #21 (Set 1) of the human (alpha)C subunit], the figures for the ED50 (with rabbit antiserum #1989 [2]; in assay [3]; in [4]) were more than 2.5 µM, 1 µM and 0.156 µM, respectively.

In turn, Biotin-SGSGAAHANCHRVALNIS [biotinylated peptide #9 (Set 1) of the human (alpha)C subunit] returned an ED50 in the assay with rabbit antiserum #1989 [2] of more than 2.5 µM.

In the case of Biotin-SGSGMSWPWSPSALRLLQ [biotinylated peptide #4 (Set 1) of the human (alpha)C subunit], the ED50 with rabbit antiserum #1989 [2] was more than 2.5 µM; in [3], 1.3 µM; in assay [4], 3.8 µM.

For the molecule Biotin-SGSGGAPPTPAQPYSLLP [biotinylated peptide #22 (Set 1) of the human (alpha)C subunit], the results for the ED50 (in the assay with rabbit antiserum #1989 [2]; in assay [3]; in assay [4]) were more than 2.5 µM, 5 µM and 0.156 µM, respectively.

For the molecule H-CSKKGWSPSALRLLQRPPE [non-biotinylated peptide #5 with NH2-Cys-Ser-Lys-Lys-Gly amino terminal spacer], the results for the % suppression at 2ng inhibin in assay [11], in assay [12] and in [14] were 73%, 67% and 55%, respectively. In assay [13], this molecule registered a % inhibition of 50%. Moreover, the % suppression in binding in assay [7] turned out to be 65%. In assay [15], this molecule gave an ED50 of 0.0004 µM.

On to Biotin-SGSGTPAQPYSLLPGAQP [biotinylated peptide #23 (Set 1) of the human (alpha)C subunit], for which the ED50 with rabbit antiserum #1989 [2] was more than 2.5 µM; in assay [3] it was 6.2 µM; in [4], 0.5 µM.

Biotin-SGSGERWIVYPPSFIFHY [biotinylated peptide #14 (Set 1) of the human (alpha)C subunit] came in with an ED50 with rabbit antiserum #1989 [2] of more than 2.5 µM.
